Data reported in US20210277137A1.

Target: human CD40 on cells (human) (UniProt P25942)
Assay: cell-based or functional assay

Chain of human CD40 on cells (human) (P25942 21-277 limits assumed): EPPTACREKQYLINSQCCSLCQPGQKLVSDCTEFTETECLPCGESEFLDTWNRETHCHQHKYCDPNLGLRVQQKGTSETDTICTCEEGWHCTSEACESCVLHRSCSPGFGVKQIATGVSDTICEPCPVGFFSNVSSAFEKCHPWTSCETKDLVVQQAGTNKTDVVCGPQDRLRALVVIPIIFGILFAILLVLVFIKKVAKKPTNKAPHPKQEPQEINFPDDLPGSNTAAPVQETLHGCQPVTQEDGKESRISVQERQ

literature CD40 antibody G28-5 was tested, and the Monocyte activation (THP1-Xblue, OD655) was 0.12 OD655 and the moDC activation (IL-12p70, pg/mL) was 139 pg/mL.
